In patent US6447996 one finds Ki data, which are given here for 1 substance.

What is called Ki is the dissociation constant of the complex between target and ligand, obtained from inhibition or displacement.

The target in the assay is human galanin receptor GalR1 (human) (UniProt P47211). As to the kind of experiment: competition with 5x10^-11M [125I]galanin on membranes of Cos1 cells transfected with GalR1; Cheng-Prusoff.
UniProt P47211, sequence (P47211 other isoform, or with tags, fused parts or gaps): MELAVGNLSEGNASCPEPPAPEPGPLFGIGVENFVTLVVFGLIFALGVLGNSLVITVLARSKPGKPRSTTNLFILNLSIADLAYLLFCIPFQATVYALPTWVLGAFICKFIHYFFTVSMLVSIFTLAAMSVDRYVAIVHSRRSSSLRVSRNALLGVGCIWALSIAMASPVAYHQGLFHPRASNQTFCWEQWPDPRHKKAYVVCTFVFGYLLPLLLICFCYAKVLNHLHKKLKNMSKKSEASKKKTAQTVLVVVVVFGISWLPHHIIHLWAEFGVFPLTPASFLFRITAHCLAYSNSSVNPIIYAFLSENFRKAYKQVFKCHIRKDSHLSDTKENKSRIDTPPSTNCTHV

Take galanin 2-29 (peptide): the Ki was found to be 115 nM.
